Experiments:
Assay type in all cases: physicochemical
[1] = HPSEC trace / molecular weight distribution of different Compound D loading conjugates
Description: (§1) The molecular weight distributions of Composition C conjugate, PHF and PHF-GA were measured by high performance size exclusion chromatography (HPSEC) with RI detection. Separation was carried out on a GE Healthcare Superose 6 column using 50 mM pH=7.4 phosphate 0.9% NaCl as an fluent. Dextran standards (American Polymer Standards Corporation) were used to establish a calibration curve of known molecular weight vs. retention time. Molecular weight distributions (weight average molecular weight (“Mw”), D90, D50, D10) were calculated based on the polysaccharide standard curve.
Composition C batches were analyzed by high performance size exclusion chromatography. […] Batches B and E have the additional desirable property of relatively high Compound D loading; approximately 3-fold higher than Batches C and F.

[2] = Peak molecular weight at ~3 and ~60 mg/ml (concentration dependence)
Description: as §1
Peak molecular weight values were measured for Composition C batches in solution at ˜3 mg/ml and at ˜60 mg/ml.

[3] = Solution appearance of Composition C batches
Description: Physical properties of select Composition C batches were measured as described in the Methods section.

SMILES: CO[C@H]1[C@H](C2(C)OC2CC=C(C)C)[C@]2(CC[C@H]1OC(=O)NCc1ccc(NC(=O)CCCC(=O)O)cc1)CO2 (some centres unmarked) [Compound D]
- SEC Trace [1]: 2 peaks (high
- % Change ([2]; Mp at ~60 mg/ml vs ~3 mg/ml): +58%
- Mp at ~3 mg/ml ([2]; ~3 mg/ml in solution): 57.8 kDa
- Mp at ~60 mg/ml ([2]; ~60 mg/ml in solution): 91.2 kDa
- Solution Appearance [3]: Very slight
